Laboratory results as given in IntAct's records for PubMed 29039417.

B1: BBSome complex member BBS2 (Homo sapiens), Q9BXC9 (parent)
chain: MLLPVFTLKLRHKISPRMVAIGRYDGTHPCLAAATQTGKVFIHNPHTRNQHVSASRVFQSPLESDVSLLSINQAVSCLTAGVLNPELGYDALLVGTQTNLLAYDVYNNSDLFYREVADGANAIVLGTLGDISSPLAIIGGNCALQGFNHEGSDLFWTVTGDNVNSLALCDFDGDGKKELLVGSEDFDIRVFKEDEIVAEMTETEIVTSLCPMYGSRFGYALSNGTVGVYDKTSRYWRIKSKNHAMSIHAFDLNSDGVNELITGWSNGKVDARSDRTGEVIFKDNFSSAIAGVVEGDYRMDGHIQLICCSVDGEIRGYLPGTAEMRGNLMDTSAEQDLIRELSQKKQNLLLELRNYEENAKAELASPLNEADGHRGIIPANTRLHTTLSVSLGNETQTAHTELRISTSNDTIIRAVLIFAEGIFTGESHVVHPSIHNLSSSICIPIVPPKDVPVDLHLKAFVGYRSSTQFHVFESTRQLPRFSMYALTSLDPASEPISYVNFTIAERAQRVVVWLGQNFLLPEDTHIQNAPFQVCFTSLRNGGHLHIKIKLSGEITINTDDIDLAGDIIQSMASFFAIEDLQVEADFPVYFEELRKVLVKVDEYHSVHQKLSADMADHSNLIRSLLVGAEDARLMRDMKTMKSRYMELYDLNRDLLNGYKIRCNNHTELLGNLKAVNQAIQRAGRLRVGKPKNQVITACRDAIRSNNINTLFKIMRVGTASS
partner: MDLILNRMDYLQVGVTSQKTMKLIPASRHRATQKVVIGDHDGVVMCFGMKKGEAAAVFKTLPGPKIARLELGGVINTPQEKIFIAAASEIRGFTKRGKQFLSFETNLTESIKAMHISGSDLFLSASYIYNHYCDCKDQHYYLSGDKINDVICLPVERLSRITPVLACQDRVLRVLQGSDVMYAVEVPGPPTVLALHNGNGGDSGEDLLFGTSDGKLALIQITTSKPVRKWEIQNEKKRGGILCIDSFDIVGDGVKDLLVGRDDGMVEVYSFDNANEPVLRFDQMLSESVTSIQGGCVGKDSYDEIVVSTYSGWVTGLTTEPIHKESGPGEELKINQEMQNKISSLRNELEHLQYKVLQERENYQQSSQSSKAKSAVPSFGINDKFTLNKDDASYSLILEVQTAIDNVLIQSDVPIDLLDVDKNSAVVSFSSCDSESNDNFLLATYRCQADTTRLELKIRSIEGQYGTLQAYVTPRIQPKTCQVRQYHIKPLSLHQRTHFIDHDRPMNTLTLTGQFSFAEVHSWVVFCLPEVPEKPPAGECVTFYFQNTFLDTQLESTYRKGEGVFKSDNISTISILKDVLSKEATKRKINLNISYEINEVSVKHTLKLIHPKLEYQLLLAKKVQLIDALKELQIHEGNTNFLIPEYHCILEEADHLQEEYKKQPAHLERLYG

Variants of: B1
Details: with BBS7, Q8IWZ6-2

| Variant | effect of a mutation on the interaction |
| --- | --- |
| L610E | with no effect |
| L610A | disrupting interaction strength |
| L610K | with no effect |
| K595E | with no effect |
| K595A | with no effect |
| R622A | with no effect |
| R594E | with no effect |
| R594K | with no effect |
| A612K | with no effect |
| Y589A | with no effect |
| Y589E | with no effect |
| Y589K | with no effect |
| M571E | with no effect |
| M571A | with no effect |
| L580E | with no effect |
| L580K | with no effect |
| L580A | with no effect |
| S611E | with no effect |
| S611K | with no effect |
| A564H | disrupting interaction strength |
| A564E | with no effect |
| A564K | with no effect |
| A564R | disrupting interaction strength |
| V588E | with no effect |
| V588K | with no effect |
| D616A | with no effect |

| Variant | effect of a mutation on the interaction |
| --- | --- |
| D616E | with no effect |
| F575A | with no effect |
| F575K | with no effect |
| S570K | with no effect |
| G565E | with no effect |
| G565A | with no effect |
| G565K | with no effect |
| A572K | with no effect |
| A572E | with no effect |
| D601A | with no effect |
| D601E | with no effect |
| D601K | with no effect |
| E578A | with no effect |
| E578K | with no effect |
| E602K | with no effect |
| V598A | with no effect |
| V600A | with no effect |
| V600E | with no effect |
| V600K | with no effect |
| V606A | with no effect |
| V606E | with no effect |
| I567E | with no effect |
| I567A | with no effect |
| A584E | with no effect |
| A584K | with no effect |
| V596E | with no effect |

| Variant | effect of a mutation on the interaction |
| --- | --- |
| E591A | with no effect |
| L620E | with no effect |
| L620A | with no effect |
| L620K | with no effect |
| Q581K | with no effect |
| Q581E | with no effect |
| Q581A | with no effect |
| M614E | with no effect |
| M614A | with no effect |
| I568E | disrupting interaction strength |
| I568K | with no effect |
| K609E | with no effect |
| N619K | with no effect |
| N619E | with no effect |
| H604A | with no effect |
| Y603K | with no effect |
| Y603A | with no effect |
| Y603E | with no effect |
| L593A | with no effect |
| S618A | with no effect |
| L597A | with no effect |
| H607K | with no effect |
| H607A | disrupting interaction strength |
| D585K | with no effect |
| D585E | with no effect |
| D585A | with no effect |

| Variant | effect of a mutation on the interaction |
| --- | --- |
| P587E | with no effect |
| P587K | with no effect |
| D562A | disrupting interaction strength |
| D562E | with no effect |
| A615K | with no effect |
| A615E | with no effect |
| F590K | with no effect |
| F590E | with no effect |
| F590A | with no effect |
| E592K | with no effect |
| E592A | with no effect |
| H617K | with no effect |
| I621A | with no effect |
| I621K | with no effect |
| S605A | with no effect |
| S605E | disrupting interaction strength |
| D613K | with no effect |
| D613E | with no effect |
| D613A | with no effect |
| D579K | with no effect |
| D579E | with no effect |
| F586E | with no effect |
| F586K | with no effect |
| F586A | with no effect |
| I577E | with no effect |
| I577A | with no effect |

| Variant | effect of a mutation on the interaction |
| --- | --- |
| I577K | with no effect |
| L563K | with no effect |
| L563E | with no effect |
| F574L | disrupting interaction strength |
| F574A | with no effect |
| F574E | with no effect |
| F574K | with no effect |
| V582E | with no effect |
| D566K | with no effect |
| S573E | with no effect |
| S573K | with no effect |
| S573A | with no effect |
| K599A | with no effect |
| Q569A | with no effect |
| Q569E | with no effect |
| E583K | with no effect |
| I561A | with no effect |
| I561C | disrupting interaction strength |
| I561E | with no effect |
| I561K | with no effect |
| D560K | with no effect |
| D560A | disrupting interaction strength |
| D560E | with no effect |

Continued, values first:

| effect of a mutation on the interaction | Variant |
| --- | --- |
| with no effect | D559E |
| with no effect | D559K |
| with no effect | R622E |
| with no effect | R622K |
| with no effect | A576E |
| with no effect | A576K |
| with no effect | R594A |
| with no effect | A612E |
| with no effect | M571K |
| with no effect | S611A |
| with no effect | V588A |
| with no effect | D616K |
| with no effect | F575E |
| with no effect | S570A |
| with no effect | S570E |
| with no effect | E602A |
| with no effect | V598K |
| with no effect | V598E |
| with no effect | V606K |

| effect of a mutation on the interaction | Variant |
| --- | --- |
| with no effect | I567K |
| with no effect | V596A |
| with no effect | V596K |
| with no effect | E591K |
| with no effect | M614K |
| with no effect | I568A |
| with no effect | K609A |
| with no effect | N619A |
| with no effect | H604E |
| with no effect | H604K |
| with no effect | L593E |
| with no effect | L593K |
| with no effect | S618K |
| with no effect | S618E |
| with no effect | L597E |
| with no effect | L597K |
| with no effect | H607E |
| with no effect | P587A |
| with no effect | D562K |

| effect of a mutation on the interaction | Variant |
| --- | --- |
| with no effect | H617E |
| with no effect | H617A |
| with no effect | I621E |
| with no effect | S605K |
| with no effect | D579A |
| with no effect | L563A |
| with no effect | S623E |
| with no effect | S623A |
| with no effect | V582K |
| with no effect | V582A |
| with no effect | D566A |
| with no effect | D566E |
| with no effect | K599E |
| with no effect | Q569K |
| with no effect | E583A |
| with no effect | Q608A |
| with no effect | Q608K |
| with no effect | Q608E |
